The source of these data is article PMC9308757.

One series addresses MBP-DDX3X (human, UniProt O00571 1-662). The series can be described thus: smFRET.
A further series has as its target MBP-DDX3Y (human, UniProt O15523 1-660). In words: smFRET.

Chain of MBP-DDX3X (O00571 whole entry): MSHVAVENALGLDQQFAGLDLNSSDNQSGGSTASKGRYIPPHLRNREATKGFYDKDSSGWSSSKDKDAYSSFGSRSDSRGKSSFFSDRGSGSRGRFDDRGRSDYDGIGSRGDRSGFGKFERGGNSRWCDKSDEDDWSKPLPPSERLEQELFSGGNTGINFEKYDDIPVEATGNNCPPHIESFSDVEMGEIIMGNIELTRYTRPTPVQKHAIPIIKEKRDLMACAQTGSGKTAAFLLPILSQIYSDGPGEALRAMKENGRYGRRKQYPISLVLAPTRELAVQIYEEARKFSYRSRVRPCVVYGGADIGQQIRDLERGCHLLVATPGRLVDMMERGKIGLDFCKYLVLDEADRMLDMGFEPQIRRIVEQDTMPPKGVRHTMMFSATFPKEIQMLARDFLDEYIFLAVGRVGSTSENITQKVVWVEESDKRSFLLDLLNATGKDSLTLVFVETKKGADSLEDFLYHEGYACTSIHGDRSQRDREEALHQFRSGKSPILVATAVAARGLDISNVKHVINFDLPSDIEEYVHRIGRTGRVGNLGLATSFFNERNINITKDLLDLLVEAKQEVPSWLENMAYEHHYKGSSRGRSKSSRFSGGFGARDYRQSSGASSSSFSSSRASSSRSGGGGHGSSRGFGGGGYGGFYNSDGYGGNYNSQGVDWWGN
Chain of MBP-DDX3Y (O15523 whole entry): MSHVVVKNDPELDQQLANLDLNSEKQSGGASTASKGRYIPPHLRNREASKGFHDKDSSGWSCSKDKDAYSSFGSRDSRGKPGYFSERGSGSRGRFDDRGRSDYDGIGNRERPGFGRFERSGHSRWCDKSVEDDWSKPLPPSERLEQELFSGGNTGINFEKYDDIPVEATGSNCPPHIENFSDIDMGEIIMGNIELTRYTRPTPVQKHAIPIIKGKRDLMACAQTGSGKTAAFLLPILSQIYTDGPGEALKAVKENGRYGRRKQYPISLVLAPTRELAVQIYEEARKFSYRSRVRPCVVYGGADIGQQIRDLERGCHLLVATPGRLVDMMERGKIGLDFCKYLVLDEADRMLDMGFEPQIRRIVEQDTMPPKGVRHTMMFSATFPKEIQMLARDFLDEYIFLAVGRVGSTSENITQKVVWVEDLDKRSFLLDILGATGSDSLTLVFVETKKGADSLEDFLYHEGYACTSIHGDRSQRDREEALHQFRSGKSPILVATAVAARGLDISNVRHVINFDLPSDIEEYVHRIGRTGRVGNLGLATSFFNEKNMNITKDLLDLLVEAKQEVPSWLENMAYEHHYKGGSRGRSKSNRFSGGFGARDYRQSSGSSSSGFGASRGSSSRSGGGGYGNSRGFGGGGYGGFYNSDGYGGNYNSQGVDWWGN

B1: smFRET dsRNA with 5' poly(U) overhang (dsRNA)
RNA 1: ACCGCUGCCGUCGCUCCG
RNA 2: UUUUUUUUUUUUUUUUUUUUUUUUUUUUUUUUUUUUUUUUUUUUUUUUUUCGGAGCGACGGCAGCGGU
For B1, the binding result in the series with MBP-DDX3X and with MBP-DDX3Y was “binds” each time.
